How the values were obtained:
[1] = target: T1, recombinant human His-tagged FcγRIIIa (extracellular domain made at Centocor) (human, UniProt P08637 17-208); experiment: ELISA
T1 construct: extracellular domain; also called CD16a; recombinant, soluble, human FcγRIIIa
Protocol: (§1) FcγRI (CD64) ELISA —50 μl of a 1 μg/ml solution of recombinant human His-tagged FcγRI (extracellular domain, R&D Systems #1257-FC-050) in ELISA buffer (PBS, pH 7.4, 4 mg/ml BSA, 0.01% Tween-20) was added to each well of HisGrab 96 well plates (Pierce #15142) (Powers G., Notebook 9006, pp. 166-168, 180-181). The plate was incubated with shaking for 3 hours. The plates were washed 3× with 300 μl of wash buffer (PBS, 0.01% Tween-20) on a plate washer. Serial dilutions of the CNTO860 antibody Fc-variant samples were made in ELISA buffer and 50 μl per well of each titration were added in duplicate to the FcγRI-coated plates. The plates were incubated with shaking for 1 hour. The plates were washed 3× with 300 μl of wash buffer on a plate washer. 50 μl of a 1:10,000 dilution of HRP-labeled goat F(ab′)₂ anti-human IgG F(ab′)₂ (Jackson Immunoresearch # 109-036-097) in ELISA buffer was added to each well. The plates were incubated with shaking for 30 minutes. The plates were washed 3× with 300 μl of wash buffer on the plate washer. 50 μl per well TMB substrate (RDI #RDI-TMBSU-1L) was added to each well and developed for 5 minutes. The reaction was stopped by adding 100 μl 0.2 N sulfuric acid. The plates were read at OD450 on an Envision plate reader.
(§2) FcγRIIIa (CD16a) ELISA—A human FcγRIIIa binding assay was done in ELISA format similar to the assay for FcγRI above. 50 μl of a 2 μg/ml solution of recombinant human His-tagged FcγRIIIa (extracellular domain made at Centocor) in ELISA buffer (PBS, 4 mg/ml BSA, 0.01% Tween-20) was added to each well of HisGrab 96 well plates (Pierce #15142) (Powers G., Notebook 10378, 19-23). The plate was incubated for 3 hours at room temp. The plates were blocked with 200 μl of Starting Block (Pierce #15142) for 30 min, and then washed 3× with 300 μl of wash buffer (PBS, 0.01% Tween-20) on a plate washer. Serial dilutions of the CNTO 860 test samples were made in Starting Block buffer and 50 μl per well of each titration were added in duplicate to the FcγRIIIa-coated plates. The plates were incubated for 1 hour. The plates were washed 3× with 300 μl of wash buffer on a plate washer. 50 μl of a 1:10,000 dilution of HRP-labeled goat F(ab′)2 anti-human IgG F(ab′)2 (Jackson Immunoresearch # 109-036-097) in Starting Block buffer was added to each well. The plates were incubated for 30 minutes.

[2] = target: T2, FcγRIIIa on NK cells of human PBMC (human, UniProt P08637 17-254); experiment: cell-based or functional assay
T2 sequence (P08637 17-254): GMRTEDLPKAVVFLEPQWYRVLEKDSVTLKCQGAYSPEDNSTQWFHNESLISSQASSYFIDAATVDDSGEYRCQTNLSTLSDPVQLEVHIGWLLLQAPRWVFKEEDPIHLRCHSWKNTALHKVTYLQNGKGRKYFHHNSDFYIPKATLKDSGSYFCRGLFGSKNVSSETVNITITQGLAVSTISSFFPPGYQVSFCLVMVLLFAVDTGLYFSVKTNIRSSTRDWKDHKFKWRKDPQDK

[3] = target: T2, FcγRIIIa on NK cells of human PBMC; experiment: cell-based or functional assay; remark: listed apart in the source
[4] = target: T3, recombinant human His-tagged FcγRI (extracellular domain, R&D Systems #1257-FC-050) (human, UniProt P12314 16-292); experiment: ELISA, His-tagged FcγRI captured on HisGrab plate
T3 construct: extracellular domain; Bought; also called CD64; recombinant, soluble, human FcγRI
T3 sequence (P12314 16-292): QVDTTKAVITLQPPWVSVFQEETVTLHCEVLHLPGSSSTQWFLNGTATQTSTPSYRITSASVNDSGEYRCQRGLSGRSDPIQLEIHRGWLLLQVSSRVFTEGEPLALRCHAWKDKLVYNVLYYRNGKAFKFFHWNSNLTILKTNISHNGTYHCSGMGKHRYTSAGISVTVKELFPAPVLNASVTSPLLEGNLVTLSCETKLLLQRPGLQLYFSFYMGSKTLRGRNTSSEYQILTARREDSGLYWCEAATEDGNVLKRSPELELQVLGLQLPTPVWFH
Protocol: as §1

[5] = target: T1, recombinant human His-tagged FcγRIIIa …; experiment: ELISA, His-tagged FcγRIIIa captured on HisGrab plate
Protocol: as §2, with “minutes. The plates were washed 3× with 300 μl of wash buffer on the plate washer. 50 μl per well TMB substrate (RDI #RDI-TMBSU-1L) was added to each well and developed for 3-5 minutes. The reaction was stopped by adding 100 μl […] sulfuric acid. The plates were read at OD450 on an Envision plate reader. Antibody concentration vs OD450 values were graphed for each CNTO 860 variant and the antibody concentration needed to achieve an OD450 reading of 0.14 established by interpolation within each data curve.” for “minutes.”

T1 sequence (P08637 17-208): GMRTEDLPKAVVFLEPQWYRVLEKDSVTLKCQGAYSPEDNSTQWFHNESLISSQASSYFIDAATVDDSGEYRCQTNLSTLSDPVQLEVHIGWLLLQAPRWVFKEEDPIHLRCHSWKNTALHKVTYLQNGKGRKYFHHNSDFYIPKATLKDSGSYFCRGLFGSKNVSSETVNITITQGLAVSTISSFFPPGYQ

Row | fold better binding than WT from CHO cells [1] | fold potency in ADCC against CHO-CNTO 860 WT [2] | EC25 (ng/ml), ADCC of HCT116 cells by human PBMC [3] | concentration (ng/ml) required for an O.D. value of 1.0 [4] | concentration (ng/ml) required for an O.D. value of 0.14 [5] | fold better binding than WT from CHO [1] | fold better binding than WT from YB2/0 cells [1] | fold change of the concentration for 25% lysis against WT CNTO860 from CHO host cells [2] | fold potency in ADCC against YB2/0-CNTO 860 WT [2] | Binder
1 | 6 fold | ~7 fold | 0.75 ng/mL | 300 ng/mL | 750 ng/mL |  |  |  |  | CHO-CNTO 860 I332E (antibody, N-linked glycan at Asn297 of the heavy chain (CHO-type, highly fucosylated); not carried by the letters, IgG1/kappa Fc variant; transiently expressed in CHO cells (p4157/p4146); also called I332E (CHO cell-derived); I332E from CHO cells; copies: 2 + 2) heavy: not shown light: DIQMTQSPSSLSASVGDRVTITCKASQDIRKYLNWYQQKPGKAPKLLIYYATSLADGVPSRFSGSGSGTDYTFTISSLQPEDIATYYCLQHGESPYTFGQGTKLEITRTVAAPSVFIFPPSDEQLKSGTASVVCLLNNFYPREAKVQWKVDNALQSGNSQESVTEQDSKDSTYSLSSTLTLSKADYEKHKVYACEVTHQGLSSPVTKSFNRGEC
2 |  |  | 0.3 ng/mL | 300 ng/mL | 165 ng/mL | ~30 fold | ~10 fold | ~100 fold | ~8 fold | YB2/0-CNTO 860 I332E (antibody, human IgG1, kappa, Heavy chain N297 carries the YB2/0-type low-fucose N-linked glycan; not carried by the letters., IgG1/kappa Fc variant; stably expressed in YB2/0 cells (p4148/p2402), low-fucose glycan; EU numbering; also called I332E (YB2/0 cell-derived); I332E from YB2/0 cells; copies: 2 + 2) heavy: not shown light: DIQMTQSPSSLSASVGDRVTITCKASQDIRKYLNWYQQKPGKAPKLLIYYATSLADGVPSRFSGSGSGTDYTFTISSLQPEDIATYYCLQHGESPYTFGQGTKLEITRTVAAPSVFIFPPSDEQLKSGTASVVCLLNNFYPREAKVQWKVDNALQSGNSQESVTEQDSKDSTYSLSSTLTLSKADYEKHKVYACEVTHQGLSSPVTKSFNRGEC
